Test results taken from US20240148841A1.

Biological target: human IgG (of human serum; IgG against AAV8 in AAV8 positive human serum pools CP16 and P1) (human)
Assay: cell-based or functional assay

B1: Xork1.3-Fc-HD-H435R (Fc fusion)
chain: MTLWADGVQVDDKDFKPSTENFGTNYLAAEYGIGKGYYDINKKFDGTDDDLCSGVVAANQLHWWLDRNKDYIEKYRQQSKDNGVTIGNTDIFELNKLHDEDQSNFFDFIKKSFGNKFLQPERLLNMYINGYGYLTSQDKAKTSQPSPSKLNFFQKVFKNNLLTDKTPINDIDEFSSQTKNALQNHKVLAVSFASIKNRGLGHVVTVWGADFDENGKVVALYVTDSDDRSKNIGNAKLGMKKLRIEVSAQDSSTIKLTGFEDKNSGGSLRHLYSLSTGEQIWKKYFEETEPKSSDKTHTCPPCPAPELLSSPSVFLFPPKPKDTLMISRTPEVTCVVVDVSHEDPEVKFNWYVDGVEVHNAKTKPREEQYNSTYRVVSVLTVLHQDWLNGKEYKCKVSNKALPAPIEKTISKAKGQPREPQVYTLPPSRDELTKNQVSLTCLVKGFYPSDIAVEWESNGQPENNYKTTPPVLDSDGSFFLYSKLTVDKSRWQQGNVFSCSVMHEALHNRYTQKSLSLSPG
B1 was tested, and the SEAP levels in passively immunized mice (% lower than in non-immunized controls) was 20.
